First the molecules themselves.
T1: OROV nucleoprotein (N), recombinant, strain BeAn19991 (Oropouche virus strain BeAn19991)
T1 chain: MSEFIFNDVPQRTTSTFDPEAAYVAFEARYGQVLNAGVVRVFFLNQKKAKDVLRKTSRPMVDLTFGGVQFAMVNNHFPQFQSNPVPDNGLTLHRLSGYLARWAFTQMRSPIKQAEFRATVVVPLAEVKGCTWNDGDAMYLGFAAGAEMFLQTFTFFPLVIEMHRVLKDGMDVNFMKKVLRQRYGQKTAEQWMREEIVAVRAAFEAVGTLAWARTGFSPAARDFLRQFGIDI

T2: OROV nucleoprotein (N) of strain BeAn19991, native, in virus stocks and infected cells (Oropouche virus strain BeAn19991)
T2 construct: N protein of Oropouche virus strain BeAn19991, GenBank AJE24680.1, as made by the virus; also called OROV BeAn19991
T2 chain: T1 chain

T3: OROV nucleoprotein (N) of strain TRVL, native, in virus stock (Oropouche virus strain TRVL (stand-in: …, strain))
T3 construct: N protein of Oropouche virus strain TRVL (Anderson et al, 1961); also called OROV TRVL
T3 chain: T1 chain

T4: OROV nucleoprotein (N) of the 2023-4 epidemic isolate AM0088, native (Oropouche virus isolate AM0088, strain)
T4 construct: also called OROV AM0088 N
T4 chain: T1 chain

B1: OROV Gc spike region (residues 482-894 of the M polyprotein), recombinant, strain BeAn19991 (domain or fragment, Oropouche virus strain BeAn19991)
chain: DEDCLSKDIKITYQELHNCIGPKIMGDTCVSKSELYSDLFSKNLVTEYDKKYFEPDTVNDQFNKIEFAQDAHRMILLERILYKTECEMLSLKKNSGPYNVAWRTYFKNHNIDLCSRHNYKMICQCINTHSMCKNTDIDYNKEIETYYKSNAAAYRADLNTIMDTLKTAFRGLTKVLIENYIEKDDSDALKALFSNITDSVQDNYQMIGILKFASKLLDINLGRSTRSAHHSIMTNEIPKSNPFTDYSYSNLNIKECMSPESLKCFKKRDSTPHTNHLLCKIDNKYKAFDWPEIETIQKGQKLCLGDSHCNLEFTAITADKIMSLTNCYKESFTAQPADMQAGIKKCSADEIGECTTLEDKTWPIIFCGGKYYYSDSKEHAKDGSINNYCLTNKCSEQRFPIHENWFKKCNWDK
notes: Gc spike region (head and stalk domains) of the M polyprotein of Oropouche virus strain BeAn19991, GenBank AJE24679.1, residues 482-894; also called Gc spike domain
B2: AlexaFluor568-conjugated OROV SpE8 nanobody (Cys-His8) (VHH)
VHH: QVQLVESGGGFVRAGDSLRLSCAASGRAFSTYAMGWFRQAPGKEREFVAGITLGSRITQYADSVKGRFTISRDNARQTMYLQMNNLQPEDTADYYCAARGQGSPPLRNRWSADDYNYWGQGLQVTVSS
notes: as the VHH of m21; also called OROV Sp Nb E8 CH8
B3: biotinylated nanobody NpE3 (AviTag-His9) (VHH)
VHH: QVQLVESGGGLVRPGGSLRLSCAASGFTFSNAYMTWIRQAPGKDLEWVSSIYYGDMTSYATSVKGRFTISRDNAKNTLYLQMNNLKPEDSAIYYCTKGDERGQGTQVTVSS
notes: VHH NpE3 from an immunised llama; also called bNpE3; OROV Np Nb E3 BAP H9; not shown: AviTag, C-terminal, kept
B4: AlexaFluor568-conjugated OROV NpE3 nanobody (Cys-His8) (VHH)
VHH: B3 VHH
notes: as the VHH of m13; also called OROV Np Nb E3 CH8
B5: biotinylated nanobody SpC7 (AviTag-His9) (VHH)
VHH: QVQLVESGGGLVQAGGSLRLSCAASGRTFSPNAMGWFRQAPGKEREFVSAISWSGGSTTYADSVKGRFTISRDNAKNTVSLQMNSLKPEDTAVYYCAADLEGMVVADRIWGQGTQVTVSS
notes: VHH SpC7 from an immunised llama; also called bSpC7; (biotinylated)bSpC7; not shown: AviTag, C-terminal, kept
B6: nanobody NpF2, His8-tagged (VHH)
VHH: QVQLVESGGGAVQAGGSLRLSCAASGRTFSSFPMGWFRQAPGKEREFIAAINWSGASKYYADSVKGRFAISRDNAKNTVYLQMNSLTPEDTAVYSCAAGSGRYGYTFSKEYTYWGQGTQVIVAS
notes: as the VHH of m14; also called OROV Np Nb F2 H8; not shown: His8, C-terminal, kept

Test [1] concerns the target T5, nanobody-Fc fusion FcSpB6 (llama).
T5 construct: as the VHH of m18; also called FcSpB6-HRP; OROV FcSpB6; not shown: Fc (human IgG1 hinge and Fc domains 2 and 3), C-terminal, kept
In words: ELISA. The settings on record: both partners purified.

In test [2] the target is T6, biotinylated nanobody-Fc fusion bFcSpC7 (C-terminal AviTag) (llama).
T6 construct: as the VHH of m20; also called OROV FcSpC7 BAP; not shown: Fc (human IgG1 hinge and Fc domains 2 and 3), C-terminal, kept; AviTag, C-terminal, kept
Nature of the test: ELISA. The settings on record: both partners purified.

The target in test [3] is T7, OROV glycoprotein Gc of strain BeAn19991, native, in virus stocks and infected cells (Oropouche virus strain BeAn19991, UniProt A0A0B5CLT0).
T7 construct: On virus particles Gc stands with Gn; also called Gc spike; OROV BeAn19991
Nature of the test: immunostaining of cells or tissue. The settings on record: one partner purified.

Test [4] deals with T8, OROV glycoprotein Gc of the 2023-4 epidemic isolate AM0088, native (Oropouche virus isolate AM0088 …, UniProt A0A0B5CLT0, strain).
T8 construct: also called Gc spike; OROV AM0088
Nature of the test: immunostaining of cells or tissue. The settings on record: one partner purified.

Test [5] has as its target T1, OROV nucleoprotein (N), recombinant, …. In words: ELISA. The settings on record: both partners purified. For orientation: ELISA stands for enzyme-linked immunosorbent assay.
Test [6] deals with T2, OROV nucleoprotein (N) of strain …. In words: ELISA; sandwich ELISA with nanobodies, […]. The settings on record: one partner purified.
Test [7] concerns the target T3, OROV nucleoprotein (N) of strain TRVL, …. In words: ELISA; sandwich ELISA with nanobodies, […]. The settings on record: one partner purified.
For test [8], the target named is T2, OROV nucleoprotein (N) of strain …. Nature of the test: immunostaining of cells or tissue. The settings on record: one partner purified.
For test [9], the target named is T4, OROV nucleoprotein (N) of the 2023-4 …. Nature of the test: immunostaining of cells or tissue. The settings on record: one partner purified.
Test [10] concerns the target T7, OROV glycoprotein Gc of strain …. Nature of the test: ELISA; sandwich ELISA with nanobodies, […]. The settings on record: one partner purified.
For test [11], the target named is T9, OROV glycoprotein Gc of strain TRVL, native, in virus stock (Oropouche virus strain TRVL (stand-in: …, UniProt A0A0B5CLT0, strain)).
T9 construct: also called Gc spike; OROV TRVL
Nature of the test: ELISA; sandwich ELISA with nanobodies, […]. The settings on record: one partner purified.

For test [12], the target named is B1. In words: ELISA; […], biotinylated nanobody 2 µg/mL, […], room temperature. The settings on record: both partners purified.
Test [13] has as its target T2, OROV nucleoprotein (N) of strain …. Nature of the test: ELISA. The settings on record: one partner purified.
Test [14] has as its target T3, OROV nucleoprotein (N) of strain TRVL, …. Nature of the test: ELISA. The settings on record: one partner purified.

Data on six molecules can be found in PMC12423313, “Protein-based tools for the detection and characterisation of Oropouche virus infection” (EMBO Molecular Medicine, 2025).

With B1, the binding result in test [1] and in [2] was “binds” in each case.
Take B2: the binding result in [3] and in test [4] was “binds” throughout.
For the molecule B3, the binding result in test [5], in test [6] and in test [7] was “binds” in each case.
Consider B4, for which the binding result in [8] and in [9] was “binds” in each case.
For the molecule B5, the binding result in test [10], in test [11] and in [12] was “binds” in each case.
As to B6, the binding result in test [5], in test [13] and in [14] was “binds” each time.
